Article doi:10.1101/2022.03.14.484294 (bioRxiv, 2022)

Biological target: Recombinant human Rac1 (Q2-L177), His-tagged (human, UniProt P63000 2-177)
Experiment: AlphaScreen or HTRF

binding result: binds
B1: Truncated recombinant human Tiam1 (R1033-E1406), FLAG-tagged (domain or fragment)
chain: RQLSDADKLRKVICELLETERTYVKDLNCLMERYLKPLQKETFLTQDELDVLFGNLTEMVEFQVEFLKTLEDGVRLVPDLEKLEKVDQFKKVLFSLGGSFLYYADRFKLYSAFCASHTKVPKVLVKAKTDTAFKAFLDAQNPKQQHSSTLESYLIKPIQRILKYPLLLRELFALTDAESEEHYHLDVAIKTMNKVASHINEMQKIHEEFGAVFDQLIAEQTGEKKEVADLSMGDLLLHTTVIWLNPPASLGKWKKEPELAAFVFKTAVVLVYKDGSKQKKKLVGSHRLSIYEDWDPFRFRHMIPTEALQVRALASADAEANAVCEIVHVKSESEGRPERVFHLCCSSPESRKDFLKAVHSILRDKHRRQLLKTE
